Drawing on publication PMC5007552, this text covers enzymatic_activity for one substance.

For the data set the following is noted: phosphorylation at S486.

Regarding “SGK3: AZD8055 (mTOR catalytic inhibitor, 0.1 uM, 1 h)”, the enzymatic_activity entry is reported as “decreases”.
